Like-named read-outs stand apart in the source and are kept apart here.
Columns and labels:
[1] = molecular target: H2A.Z/H3K9cme3 mono-nucleosome (208-bp 601 Widom DNA) (mouse | Xenopus laevis) (UniProt P0C0S6); experiment: AUC
[2] = molecular target: H2A.Z/H3K9cme3 mono-nucleosome (208-bp 601 Widom DNA) (mouse | Xenopus laevis) (UniProt P0C0S6); experiment: AUC; remark: listed apart in the source

Chain of human HP1α (heterochromatin protein 1 alpha), full length (P45973 whole entry): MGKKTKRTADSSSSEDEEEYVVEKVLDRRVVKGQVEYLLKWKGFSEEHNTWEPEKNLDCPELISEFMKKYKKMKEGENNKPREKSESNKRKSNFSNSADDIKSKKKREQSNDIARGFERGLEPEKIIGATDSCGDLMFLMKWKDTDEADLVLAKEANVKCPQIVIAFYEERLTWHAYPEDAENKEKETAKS

Kd [1]: 1 µM
stoichiometry N (HP1α dimers per nucleosome) [1]: 2
Kd [2]: 850 µM
Substance: human HP1α (heterochromatin protein 1 alpha), full length (from UniProt P45973 1-191) (natural protein)

From article PMC11560701
